Target: H4K12ac-TAMRA peptide
Experiment: fluorescence polarisation
Details: 8 nM H4K12ac-TAMRA peptide; value read at the highest BD mut concentration shown, est. about 500-600 nM; parent: est. 80; read off a plot

Chain of ATAD2^342-1390 WT (Q6PL18 342-1390 V1013A/Y1021A/I1074A, change not shown): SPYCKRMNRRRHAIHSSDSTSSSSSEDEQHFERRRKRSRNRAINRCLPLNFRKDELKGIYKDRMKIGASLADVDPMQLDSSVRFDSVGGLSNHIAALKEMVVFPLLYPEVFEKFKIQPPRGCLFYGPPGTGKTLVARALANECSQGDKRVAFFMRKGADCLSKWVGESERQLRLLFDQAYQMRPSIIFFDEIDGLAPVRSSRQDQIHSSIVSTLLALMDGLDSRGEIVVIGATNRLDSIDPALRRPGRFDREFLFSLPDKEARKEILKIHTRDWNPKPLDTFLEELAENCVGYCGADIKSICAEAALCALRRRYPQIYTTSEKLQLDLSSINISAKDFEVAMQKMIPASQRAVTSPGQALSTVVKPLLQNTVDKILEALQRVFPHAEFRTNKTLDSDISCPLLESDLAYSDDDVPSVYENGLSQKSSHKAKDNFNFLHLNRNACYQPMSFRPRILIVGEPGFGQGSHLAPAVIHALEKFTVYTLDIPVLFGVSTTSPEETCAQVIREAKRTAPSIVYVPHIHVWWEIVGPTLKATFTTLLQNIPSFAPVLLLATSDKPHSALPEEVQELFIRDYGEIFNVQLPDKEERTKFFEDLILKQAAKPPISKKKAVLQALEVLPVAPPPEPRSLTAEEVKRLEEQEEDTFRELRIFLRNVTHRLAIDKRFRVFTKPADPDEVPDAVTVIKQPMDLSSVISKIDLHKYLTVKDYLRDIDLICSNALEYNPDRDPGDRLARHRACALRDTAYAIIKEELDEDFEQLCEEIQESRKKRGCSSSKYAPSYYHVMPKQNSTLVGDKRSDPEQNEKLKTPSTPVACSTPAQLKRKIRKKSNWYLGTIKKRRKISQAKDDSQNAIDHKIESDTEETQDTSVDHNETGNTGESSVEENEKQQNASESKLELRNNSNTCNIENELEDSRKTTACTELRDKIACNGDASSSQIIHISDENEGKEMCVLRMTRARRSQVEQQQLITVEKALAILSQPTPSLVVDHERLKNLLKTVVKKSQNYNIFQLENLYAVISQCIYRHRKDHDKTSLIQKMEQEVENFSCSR

In the case of “ATAD2^342-1390 WT (from UniProt Q6PL18) BD mut”, the response was 14 mP.

— PMC5342555, “ATAD2 is an epigenetic reader of newly synthesized histone marks during DNA replication” (Oncotarget, 2016)
